Measured values: patent publication US20240384250A1, “FIBROBLAST GROWTH FACTOR 23 MODULATING COMPOUNDS” (THE UAB RESEARCH FOUNDATION, priority 2021, published 2024)

Tested on: FGF23 and FGFR1c
Test: sKL detection assay (FGF23 coated, Fc-FGFR1c detection)
Format: binding
Method: Commercially available ELISA plates (Maxisorp) are coated with 5 μg/ml of recombinant FGF23 protein (R&D Systems) and unspecific binding sites are blocked with BSA/Tween20. Wells are incubated with sKL in solution (which can be plasma, serum or cell culture supernatants) for one hour, washed and incubated for one hour with 750 ng/ml of recombinant FGFR1α(IIIc)-Fc (R&D Systems), which is a chimeric protein consisting of the FGFR1 ectodomain and the Fc region of a human IgG. FGFR1 only binds to FGF23 in the presence of sKL, and the formation of this trimeric sandwich complex is then measured by detecting the presence of the Fc domain that is coupled to FGFR1. To do so, wells are washed and incubated with 400 ng/ml of anti-human IgG conjugated to horseradish peroxidase (HRP; Promega). Wells are washed and incubated with HRP substrate. After development for about 30 minutes, reactions are analyzed on a standard plate reader via absorptions at […]. Incubations with recombinant sKL dissolved in PBS at defined concentrations serve as standards that are used as reference values to determine sKL concentrations in the studied human samples. […]
HEK293 cells were plated in 10 cm dishes supplemented with 10% FBS (26140079, Gibco) and I× Pen/Strep (15140122, Gibco). Cells were transfected with appropriate klotho or green fluorescent protein cDNA constructs. After 2 days, clones were selected by using 1 μg/ml of puromycin (A1113803, Gibco). Cells were then split and plated in 10 cm dishes in DMEM supplemented with FBS and puromycin. After 48 hours, cells were lysed in 1 ml of RIPA buffer with the addition of a protease inhibitor (11873580001, Roche) for 30 minutes. The mixture was then centrifuged at 20,000 g for 1 hour to remove all cell debris. Activity assay was run as above in the sKL halflife study. Instead of serum, 20 μl of the indicated cell lysate was used and combined with 80 μl of activity assay buffer.

binding activity relative to Com.sKL (purified proteins): approximately 7 ×
B1: sKL: recombinant soluble α-klotho ectodomain, mouse aa 35-982 and human aa 34-981, FLAG- or Strep/His-tagged, purified from HEK293 cells (protein)
chain: EPGDGAQTWARFSRPPAPEAAGLFQGTFPDGFLWAVGSAAYQTEGGWQQHGKGASIWDTFTHHPLAPPGDSRNASLPLGAPSPLQPATGDVASDSYNNVFRDTEALRELGVTHYRFSISWARVLPNGSAGVPNREGLRYYRRLLERLRELGVQPVVTLYHWDLPQRLQDAYGGWANRALADHFRDYAELCFRHFGGQVKYWITIDNPYVVAWHGYATGRLAPGIRGSPRLGYLVAHNLLLAHAKVWHLYNTSFRPTQGGQVSIALSSHWINPRRMTDHSIKECQKSLDFVLGWFAKPVFIDGDYPESMKNNLSSILPDFTESEKKFIKGTADFFALCFGPTLSFQLLDPHMKFRQLESPNLRQLLSWIDLEFNHPQIFIVENGWFVSGTTKRDDAKYMYYLKKFIMETLKAIKLDGVDVIGYTAWSLMDGFEWHRGYSIRRGLFYVDFLSQDKMLLPKSSALFYQKLIEKNGFPPLPENQPLEGTFPCDFAWGVVDNYIQVDTTLSQFTDLNVYLWDVHHSKRLIKVDGVVTKKRKSYCVDFAAIQPQIALLQEMHVTHFRFSLDWALILPLGNQSQVNHTILQYYRCMASELVRVNITPVVALWQPMAPNQGLPRLLARQGAWENPYTALAFAEYARLCFQELGHHVKLWITMNEPYTRNMTYSAGHNLLKAHALAWHVYNEKFRHAQNGKISIALQADWIEPACPFSQKDKEVAERVLEFDIGWLAEPIFGSGDYPWVMRDWLNQRNNFLLPYFTEDEKKLIQGTFDFLALSHYTTILVDSEKEDPIKYNDYLEVQEMTDITWLNSPSQVAVVPWGLRKVLNWLKFKYGDLPMYIISNGIDDGLHAEDDQLRVYYMQNYINEALKAHILDGINLCGYFAYSFNDRTAPRFGLYRYAADQFEPKASMKHYRKIIDSNGFPGPETLERFCPEEFTVCTECSFFHTRKS
modifications: left off: small tags and cut ends
notes: recombinant soluble α-klotho ectodomain, mouse aa 35-982 and human aa 34-981, FLAG- or Strep/His-tagged, purified from HEK293 cells
binding in the sKL detection assay, total cell lysates (lysates of stably transfected HEK293T cells): strong signal
